Measured values taken from the supplement of paper PMC9170038.

System: MS2 coat protein
Assay: apparent KD of MS2 coat protein; higher = weaker reporter binding
Conditions: Eterna round: R107
Outline: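 The buffer was 100 mM Tris-HCl pH 7.5 with 80 mM KCl and 4 mM MgCl2, used without or with constant ligand. In it, RNA switches transcribed on-chip from Illumina sequencing clusters were titrated with SNAP-549-labelled MS2 coat protein in twofold steps from 0.7 or 1.5 nM to 3 µM. Apparent KD for each design is the median of its normalised cluster binding-curve fits.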

[1] = input ligand: theophylline 20 uM
[2] = input ligand: theophylline 2 mM
[3] = input ligand: tryptophan 2.4 mM

Sequence	apparent KD of MS2 coat protein (input ligand: arginine 13.2 mM)	apparent KD of MS2 coat protein (input ligand: none)	apparent KD of MS2 coat protein [1]	apparent KD of MS2 coat protein [2]	apparent KD of MS2 coat protein [3]
UGUAUGUGAUCUGAUACCAGCUUUGAUAACCUGAGGAUCACCCUGGUAAAGGCGAAAGCCGGCCCUUGGCAGCAGAUCGCAUACU	47.3 nM	58.5 nM	56.1 nM	24.6 nM	59.7 nM
ACGACGCAUAGUGAUACCAGUAGAACAUGAGGAUCACCCAUGUCAGAUAUGUUCUAAUACUGCCCUUGGCAGCACUAUGCGUCAG [SSTheo B #4]	144 nM		344 nM		299 nM
ACAUGUUGGUGGUAUCUACGAAGGCGGAAACGAGGACCGGUACGGCCGCCACUCGGCGACAUGAGGAUCACCCAUGUGGUUAAGA [Exclusion - Tryptophan A (Freestyle 6)]	21.5 nM		118 nM	131 nM	
ACCGAAAGCUCACAUGAGGAUCACCCAUGUCGAGGACCGGUACGGCCGCCACUCGGCAAAUAUAAGGGUGGACGCGUCUCUGCGU [Soramasoso]	35.4 nM		58.8 nM	62.1 nM	
UGUAUGGACUGAAGGAGCGGGUAAUAAACCUGAGGAUCACCCAGGUAAUAGGCGAAAGCCGCCCAGGUAGGUCGCAGUCCAUACU	13.2 nM	13.5 nM	13.7 nM	11.7 nM	12.5 nM
UAUAUAUAGGGAAGGAGCGGGAACAUGAGGAUCACCCAUGUACAUGAGGAUCACCCAUGUACCCAGGUAGGUCGCCCAUAUAUAU [Exclusion - Arginine B]	90.7 nM	250 nM	227 nM	276 nM	241 nM
UGGCGAGAAGGAAGGAGCGUCAGCUGAGUCACAUGAGGAUCACCCAUGUAGGACAUGGUGUGACAGGUAGGUCGCCUUCUGCCCU [SS-ArgB18]	16.9 nM	14.6 nM	25.7 nM	22.5 nM	13 nM
ACAUCCAGGUUAAUCGUGGGCAUGGUCGAUACCAGUAUUUUAAUCUACCCUUGGCAGCGACAUGAGGAUCACCCAUGUGCGAUGA [XTheo A #13]	20.1 nM		33.7 nM		25.8 nM
AGCGAUAUGCAUGAUACCAGCUACAUGAGGAUCACCCAUGUACGUCAGUAAUGACUGUGUAGCCCUUGGCAGCAUAGAGCAUGUA [Exclusion - Theophylline B (Freestyle 13)]	21.7 nM		35.4 nM		22.7 nM
CAUACUUUAUCCUAUGAGCCUAUUUGUGAUACCAGCAUCUAAAUUUGCCCUUGGCAGCACUUACAUGAGGAUCACCCAUGUUUUA [JR_NU_SSTheophyA_Sub028]	22 nM		33.6 nM		24 nM
CGGUUUGUGAUGGAUACCAGCAGAGUGAAUGUUUAUCCUGACAUGAGGAUCACCCAUGUGUGCCCUUGGCAGCUGUUGUGGGCUG [8.Z]	54.4 nM		100 nM		63.7 nM
AGUACAUGAGGAUCACCCAUGUACCAUGAUACCAGACAUGAAAAUGUCCCUUGGCAGCGUGGGUGAGGCAUCCGAAAGGAUGCCC [#05 SameState-TheophyllineA]	51.1 nM	223 nM	185 nM	30.5 nM	77.7 nM
ACUGUCUUUGAUGAUAUGUAUGGGUCAUUGCGAGGACCGGUACGGCCGCCACUCGGUCCGCCACAUGAGGAUCACCCAUGUCUAU [theeternabot_exclusion_MS2_Trp_A_37]	56.8 nM		94.6 nM	195 nM	
ACCUGUACGAAAAGUGCAGGACACGGAAUACGAGGACCGGUACGGCCGCCACUCGGAAAACCUGAGGAUCACCCUGGUAACCGUG [TrypAS 11 #AlternativeMS2 #Zipper #StaticStem]	21.6 nM	16.3 nM	22.3 nM	25 nM	22.1 nM
GGGCGACAUGAGGAUCACCCAUGUGUCGAUACCAGUAUGAAUUUCUACCCUUGGCAGCGACGACACGGUUAUUUGUGCACUUCGA [theeternabot_sameState_MS2_Theo_A_5]	77.5 nM		114 nM		95.6 nM
AAAAUAAAACGUGCAAAAUCCUAAUGUGAAGGAGCGCACGAAAGUGCAGGUAGGUCGCACAUGAGGAUCACCCAUGUAGCACGAA [MAT - Exclusion Arginine A - Mod of Eli - D1]	60.1 nM	300 nM	221 nM	367 nM	230 nM
AUGGAACAUGAGGAUCACCCAUGUGAUGAUACCAGAUUAACGCUUAUCCCUUGGCAGCAUGUCCGCCCUCAACCUGUGGCGUAUU [theeternabot_sameState_MS2_Theo_A_50]	21.5 nM		36 nM		20.3 nM
UAUCCACAUGAGGAUCACCCAUGUAGGGAAGGAGCGGUGAAUGCACCAGGUAGGUCGCCUUGCUGAGGACAGCCGGUGGAUUCGU [Exclusion - Arginine A (Freestyle 26)]	16.7 nM	12.2 nM	19 nM	23 nM	16 nM
AGUCUUAAAGGAAGGAGCGCAAUCAUAACAUGAGGAUCACCCAUGUCGAGGUGAGGGUCAUUGCAGGUAGGUCGCCUUACUAAGA [Same State - Arginine B (Freestyle 7)]	128 nM	79.6 nM	88.7 nM	134 nM	78.4 nM

Sequence	apparent KD of MS2 coat protein (input ligand: arginine 13.2 mM)	apparent KD of MS2 coat protein (input ligand: none)	apparent KD of MS2 coat protein [1]	apparent KD of MS2 coat protein [2]	apparent KD of MS2 coat protein [3]
GCAUCCUAGUCGGCCGCCACUGCAACAUGAGGAUCACCCAUGUCUGCAUCUUCAUGAUGCAGUAGCAGGACCGGGACUAGGAUGC [(T1)-(M1)-(M2)-(T)''-(M)'-(T)'-(T2)_Design1_2/18/17]	69.4 nM		153 nM	242 nM	
GCUGCAGCUACGGCCGCCACUGUUACGUGAGACAUGAGGAUCACCCAUGUUGAUGUUUUACGGUAUAGGACCGGGUAGUUGUAGU [E 1.0]	9.08 nM		11.8 nM	10.3 nM	
GGUGGCGGGACUGAUACCAGCCACCACCGAUAGACCACAUGAGGAUCACCCAUGUUGGGUGGCCCUUGGCAGCAGUCUUGCGGCU [#1 Same State - Theophylline B Attempt #14 (HarryS)]	46.8 nM	797 nM	523 nM	163 nM	739 nM
UCGGGCAUGGCGGCCGCCACUGGUUGGCGUGCGGAUGAGGGAACAUGAGGAUCACCCAUGUUGGUUAGGACCGGGCUUGCGUCGU [knkmullin]	11.8 nM	16.5 nM	18 nM	15.2 nM	13.4 nM
AGCACUGUGACGGCCGCCACUACAUAAAUAGGGUGGUCAGGUUCAUUACAUGAGGAUCACCCAUGUAGGACCGGGUCUCAGUGCA [Omei Trp Exc B A v7]	10 nM		11.9 nM	11 nM	
CACGGAAGAGUGGAUCACCCUCUUAAUAAACGAGGACCGGUACGGCCGCCACUCGAAAACCGUGACCUGUACGAAAAGUGCAGGA	31.3 nM	39.4 nM	202 nM	437 nM	127 nM
CCUGGACAUGAGGAUCACCCAUGUGAGGAUACCAGAUAUCCUGAUAUCCCUUGGCAGCCUCAUUACUUCGCAUUACCGAAACUUC [theeternabot_sameState_MS2_Theo_A_35]	31.1 nM		166 nM		57.1 nM
GGAUAGGACACGGCCGCCACUACCUAGGAUACUAGCAACAUUUGGGUAUAUGAGGAUCACCCAUAUAGGACCGGGUGUCCUAUCG	48.5 nM	75.8 nM	88 nM	95.2 nM	102 nM
CUCCGAGGCUAUACUAUCCGCCUCUGUGAUACCAGAAUACCUAUAUUCCCUUGGCAGCAUCACAUGAGGAUCACCCAUGUGCCAU [SSTheo A #13]	14.5 nM		16.8 nM		13.9 nM
GGACUAACUGGAAGGAGCGACGCGCAGAAACUGCAAUUUCCUCCACACGAGGAUCACCCGUGUCAGGUAGGUCGCCAGUUAGUCG [ArgBX 29]	19.1 nM	16.7 nM	24.7 nM	21.1 nM	18.6 nM
UAUAUAGUGAUGGAUACCAGCAGAGAAAACGUUUAUCCUAACAUGAGGAUCACCCAUGUAUGCCCUUGGCAGCUGUUGUUAUAUA [8.L]	20.8 nM		30.1 nM		21.4 nM
UUUGAAAUAACAGAUACCAGCGUGUUAUAAAACAUGAGGAUCACCCAUGUAGUGAUCAAGCGCCCUUGGCAGCUGGUAUUUUAGG [7.F]	118 nM		208 nM		172 nM
AAUUCAAGGUUCUUGAUGUAUUAUAUAUUUCGAGGACCGGUACGGCCGCCACUCGUUAAUUACAUGAGGAUCACCCAUGUUAGCU [JR_ExcTryptoA_Sub010]	14.2 nM		16 nM	17.2 nM	
AUACAUGAGGAUCACCCAUGUCACACAGAAGGAGCGGCUGUAGAGCCAGGUAGGUCGCUGUACUGAAAAUACUUCAUACUCAUGU [#30 Exclusion - Arginine A]	21.7 nM	59.6 nM	43 nM	32.3 nM	26.1 nM
CUCGAGGCCGGUGAUACCAGACACGAAACUAUACAUGAGGAUCACCCAUGUCAAACAACGGUCCCUUGGCAGCAUGGGUGUAUCC [Enzabemage]	26.9 nM		131 nM		33.3 nM
CACAUGAGGAUCACCCAUGUCUGAACUGAAGGAGCGCUAAACAAGGCAGGUAGGUCGCGGAAUCCCGGGUGCAUAUGCACCCGGG [9.aA]	50.4 nM	23.9 nM	23.2 nM	23.4 nM	21.4 nM
GAUGAUAUUGCAGAUACCAGACACAUGAGGAUCACCCAUGUCUCUGUGAUGUAGGAUUGUGUCCCUUGGCAGCUGCGAUAUCAUC [Chile]	88 nM		258 nM		175 nM
ACAUGAGGAUCACCCAUGUUCCUCAUUGAUACCAGUGAAUUUAGACGCCCUUGGCAGCGAGUUUUUUUAUAAGAAGUUUUUUUUU [6.G]	280 nM		659 nM		900 nM
CGUAUUACGAAAGUAGUACGUAGUGUUCGACGAGGACCGGUACGGCCGCCACUCGGACAUGAGGAUCACCCAUGUAGCGAAAGCU [Tryptophan A 24]	46.1 nM	255 nM	301 nM	247 nM	28.3 nM
